Laboratory results as given in the Human Domainome abundance scans (Beltran et al. 2025).

B1: Zinc finger MYM-type protein 3, residues 589 to 668; numbered along this chain, Q14202 (parent)
chain: LSCHYCHSLFSGKPEVLDWQDQVFQFCCRDCCEDFKRLRGVVSQCEHCRQEKLLHEKLRFSGVEKSFCSEGCVLLYKQDF

Variants of: B1
Experiment: abundance fitness (aPCA) (normalised: wild type 0, dead -1); higher = more abundant; growth selection in yeast, the domain comes from the species named
Conditions: Homo sapiens

Abundance fitness: each site, then its substitutions
S8: K 0.486; P -1.19; L 0.062; W -0.015; D 0.076; F -0.039; Y 0.192; H 0.188; T 0.246; Q 0.397; G 0.248; N 0.297; M 0.355; A 0.321; V 0.374; E 0.154; R 0.332; I 0.309
C6: D -1.01; R -0.919; H -0.821; Q -0.892; Y -0.828; G -1.05; F -1.2; V -0.995; P -0.949; M -0.325; W -0.978
H7: I 0.088; W -0.187; E 0.158; D 0.226; G 0.117; T 0.124; V -0.145; S 0.237; Y 0.112; A 0.154; K 0.055; F 0.165; Q -0.12; N 0.126; M -0.133; R 0.049
K13: N -0.198; I -0.098; R 0.05; M -0.444; A -0.037; Q 0.039; C -0.117; P 0.042; G -0.162; V -0.169; Y -0.389; F -0.135; S -0.062; H -0.043; T -0.081; L -0.048; E -0.001; D 0.019
L17: V -0.027; C -0.077; K -0.359; R -0.348; N -0.53; Q -0.015; I -0.009; M 0.043; W -0.135; F -0.079; D -0.332; E -0.146; P -0.311; Y -0.202; G -0.135; H -0.017; A -0.035; T -0.06; S -0.262
H4: G 0.29; F 0.128; C 0.26; S 0.248; Q 0.088; P -0.061; A 0.28; K 0.179; V 0.054; W 0.079; E 0.174; R 0.115; L -0.05; N 0.225; Y 0.116; M 0.227; D 0.128; I -0.064; T 0.19
W19: N 0.225; E 0.201; K 0.183; M 0.48; P 0.224; T 0.326; L 0.332; R 0.157; D -0.035; A 0.175; Q 0.225; C 0.276; F 0.364; I 0.234; H 0.137; Y 0.269; G 0.105; V 0.167; S 0.365
Y5: T -0.009; E -0.081; H -0.066; R 0.19; N 0.021; D -0.615; C 0.01; M 0.313; Q 0.203; P -0.906; G 0.156; A 0.267; L 0.082; I -0.061; K 0.294; F 0.095
E15: H -0.017; F -0.049; T 0.076; N -0.015; D -0.155; I 0.093; S -0.108; W -0.033; A -0.075; G -0.56; V 0.057; C 0.008; Q -0.086; K -0.46; M 0.152; L -0.014
V16: E -0.072; D -0.702; S 0.011; R 0.004; Q 0.003; C -0.003; P -0.099; H -0.044; W -0.206; Y -0.041; L -0.065; F -0.229; T -0.03; N -0.033; G -0.208; K -0.11; I -0.121; M 0.022
L1: S -0.206; M 0.442; R -0.439; A -0.012; C 0.004; K 0.016; V 0.364; I 0.363; F 0.279; Y 0.047; P -0.436; Q -0.703; W -0.641; E 0.082; G -0.034; T 0.098; N 0.239
C3: D -1.04; F -0.63; N -1.11; I -1.02; T -0.936; H -1.17; K -0.837; M -0.505; R -0.949; Q -0.998; L -0.896; P -1.06; S -1.06; Y -0.984; E -0.823; V -0.871; A -0.906; G -1.01
F10: Q -0.685; G -0.408; K -0.535; N -0.373; D -0.623; T -0.16; H -0.043; P -0.052; A -0.316; W -0.298; E -0.691; Y -0.191; R -0.498; S -0.316; I -0.115
Q20: K 0.456; D 0.456; W 0.014; P 0.179; N 0.348; V 0.032; E 0.492; H -0.021; A 0.265; L 0.08; R 0.151; F 0.198; S 0.245; G 0.334; M 0.394
G12: Q -0.003; W -0.27; V -0.267; P -0.227; K -0.02; A 0.013; C -0.272; L -0.261; F -0.384; D -0.274; M -0.143; Y -0.75; I -0.395; S -0.038; R -0.145; E 0.034; T 0.039; N -0.187; H -0.15
S2: V 0.135; P -0.39; N 0.48; K 0.354; D 0.412; L 0.081; I 0.311; W -0.069; G 0.157; Y 0.293; M 0.243; A 0.106; H 0.281; T -0.051; F 0.141; R 0.12; E 0.159
S11: I -0.312; F -0.397; M -0.426; C -0.512; A -0.374; R -0.406; P -0.454; T -0.155; W -0.565; V -0.418; Q -0.275; E -0.276; G -0.169; L -0.374
P14: M -0.169; V -0.246; G -0.206; D -0.24; R -0.459; A -0.223; H -0.212; F -0.371; E -0.309; C -0.6; W -0.528; T -0.381; I -0.264; Q -0.39; S -0.386; L -0.523; N -0.153
L9: T 0.083; M -0.097; P 0.15; K -0.096; V 0.015; N -0.121; S 0.009; C -0.184; W -0.095; G 0.121; E -0.021; D -0.073; F -0.062; Q 0.093; R -0.012
D18: R 0.155; V -0.073; S 0.017; H -0.08; P 0.236; L 0.036; A -0.007; I -0.039; F -0.101; Y -0.127; G -0.083; C -0.107; K -0.028; E -0.06; M 0.175; Q 0.067; N 0.138
